From patent US20240376168A1 (LETO LABORATORIES, published 2024)

Columns and labels:
[1] = biological target: T1, extracellular domain of human receptor β-Klotho with a C-terminal Poly-His tag (human, UniProt Q86Z14 1-996); test: SPR, Biacore-8K; His-tagged β-Klotho ECD on NTA chip, FGF21 mutant as analyte, kinetic fit
T1 construct: extracellular domain; Immobilised on an NTA chip at 1,000 RU; also called human β-Klotho protein; KLB; not shown: Poly-His tag at the C-terminus
T1 sequence (looked up): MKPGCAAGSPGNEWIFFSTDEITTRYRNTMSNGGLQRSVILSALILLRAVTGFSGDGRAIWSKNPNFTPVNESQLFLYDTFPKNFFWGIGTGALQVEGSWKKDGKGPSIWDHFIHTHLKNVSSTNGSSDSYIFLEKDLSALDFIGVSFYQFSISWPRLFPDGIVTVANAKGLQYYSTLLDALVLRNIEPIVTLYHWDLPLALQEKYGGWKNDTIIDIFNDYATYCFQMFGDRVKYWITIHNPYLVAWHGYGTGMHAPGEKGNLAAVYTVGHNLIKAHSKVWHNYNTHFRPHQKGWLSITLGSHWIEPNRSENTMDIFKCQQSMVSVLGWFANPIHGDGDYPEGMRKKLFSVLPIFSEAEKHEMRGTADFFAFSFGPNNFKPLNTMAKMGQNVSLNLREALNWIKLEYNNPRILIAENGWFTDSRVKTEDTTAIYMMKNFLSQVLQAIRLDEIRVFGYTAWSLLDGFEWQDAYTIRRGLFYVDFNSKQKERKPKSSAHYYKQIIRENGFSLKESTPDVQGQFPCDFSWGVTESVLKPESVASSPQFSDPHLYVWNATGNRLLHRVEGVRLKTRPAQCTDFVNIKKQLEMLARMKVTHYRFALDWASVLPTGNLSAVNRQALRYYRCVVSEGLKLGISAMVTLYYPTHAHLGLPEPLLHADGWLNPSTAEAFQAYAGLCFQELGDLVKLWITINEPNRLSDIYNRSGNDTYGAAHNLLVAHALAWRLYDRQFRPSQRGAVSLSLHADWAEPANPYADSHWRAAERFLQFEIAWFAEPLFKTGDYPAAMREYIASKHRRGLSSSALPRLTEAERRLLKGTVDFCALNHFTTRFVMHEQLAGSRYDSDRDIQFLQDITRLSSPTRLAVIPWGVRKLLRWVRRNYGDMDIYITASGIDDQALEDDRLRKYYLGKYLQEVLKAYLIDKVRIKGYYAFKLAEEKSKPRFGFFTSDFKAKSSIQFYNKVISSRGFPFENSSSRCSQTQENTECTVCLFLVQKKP
Description: An extracellular domain of a human receptor β-Klotho (a Poly-His tag was fused at a C-terminus) was expressed and purified in the present disclosure, and a sequence of the protein was acquired from the Uniprot database. An affinity assay was conducted with Biacore-8K. Specifically, a human β-Klotho protein was immobilized on an NTA chip at a fixed amount of 1,000 RU with PBS (including 0.05% Tween-20) as a flow buffer. An FGF21 mutant was allowed to flow through the chip at different concentrations to determine the binding of the FGF21 mutant to β-Klotho. Final data were fitted using kinetics, and a dissociation constant KD was calculated.

[2] = biological target: β-Klotho overexpressed on HEK293 cells; test: cell-based or functional assay

B1: FGF21 (170C/Ins-172G/173C) mutant 1409 (ligand)
chain: HPIPDSSPLLQFGGQVRQRYLYTDDAQQTEAHLEIREDGTVGGAADQSPESLLQLKALKPGVIQILGVKTSRFLCQRPDGALYGSLHFDPEACSFRELLLEDGYNVYQSEAHGLPLHLPGQKSPHRDPAPRGPARFLPLPGLPPALPEPPGILAPQPPDVGSSDPLSLVCPGCQGRSPSYAS
modifications: intramolecular disulfide bond between C170 and C173
- Kd [1]: 59.4 nM
- Activity in β-Klotho-ERK cells (EC50) [2]: 2.14 nM

B2: FGF21 (170C/Ins-172A/173C) mutant 1412 (ligand)
chain: HPIPDSSPLLQFGGQVRQRYLYTDDAQQTEAHLEIREDGTVGGAADQSPESLLQLKALKPGVIQILGVKTSRFLCQRPDGALYGSLHFDPEACSFRELLLEDGYNVYQSEAHGLPLHLPGQKSPHRDPAPRGPARFLPLPGLPPALPEPPGILAPQPPDVGSSDPLSLVCPACQGRSPSYAS
modifications: disulfide bond introduced between 170C and 173C
notes: A small number of incorrect dimers is reported
- Kd [1]: 69.9 nM
- Activity in β-Klotho-ERK cells (EC50) [2]: 2.52 nM

B3: FGF21 (170C/Ins-172S/173C) mutant 1413 (ligand)
chain: HPIPDSSPLLQFGGQVRQRYLYTDDAQQTEAHLEIREDGTVGGAADQSPESLLQLKALKPGVIQILGVKTSRFLCQRPDGALYGSLHFDPEACSFRELLLEDGYNVYQSEAHGLPLHLPGQKSPHRDPAPRGPARFLPLPGLPPALPEPPGILAPQPPDVGSSDPLSLVCPSCQGRSPSYAS
modifications: disulfide bond introduced between 170C and 173C
notes: as for B2
- Kd [1]: 64.6 nM
- Activity in β-Klotho-ERK cells (EC50) [2]: 2.09 nM

B4: FGF21 (Del-P171) mutant 1408 (ligand)
chain: HPIPDSSPLLQFGGQVRQRYLYTDDAQQTEAHLEIREDGTVGGAADQSPESLLQLKALKPGVIQILGVKTSRFLCQRPDGALYGSLHFDPEACSFRELLLEDGYNVYQSEAHGLPLHLPGQKSPHRDPAPRGPARFLPLPGLPPALPEPPGILAPQPPDVGSSDPLSLVGSQGRSPSYAS
- Kd [1]: 67.5 nM
- Activity in β-Klotho-ERK cells (EC50) [2]: 1.48 nM

B5: FGF21 (121Q, 168L) mutant 1414 (ligand)
chain: HPIPDSSPLLQFGGQVRQRYLYTDDAQQTEAHLEIREDGTVGGAADQSPESLLQLKALKPGVIQILGVKTSRFLCQRPDGALYGSLHFDPEACSFRELLLEDGYNVYQSEAHGLPLHLPGQKSPHRDPAPRGPARFLPLPGLPPALPEPPGILAPQPPDVGSSDPLSLVGPSQGRSPSYAS
notes: Control that stands for wild-type FGF21; An alanine is added before His1 of mature FGF21; also called FGF21 control mutant 1414
- Kd [1]: 51.2 nM
- Activity in β-Klotho-ERK cells (EC50) [2]: 0.85 nM

B6: FGF21 (170C/173C) mutant 1411 (ligand)
chain: HPIPDSSPLLQFGGQVRQRYLYTDDAQQTEAHLEIREDGTVGGAADQSPESLLQLKALKPGVIQILGVKTSRFLCQRPDGALYGSLHFDPEACSFRELLLEDGYNVYQSEAHGLPLHLPGQKSPHRDPAPRGPARFLPLPGLPPALPEPPGILAPQPPDVGSSDPLSLVCPSCGRSPSYAS
modifications: disulfide bond introduced between 170C and 173C
notes: Only a trace amount of incorrect dimers is reported
- Kd [1]: 69.4 nM
- Activity in β-Klotho-ERK cells (EC50) [2]: 0.999 nM

B7: FGF21 (P171G) mutant 1407 (ligand)
chain: HPIPDSSPLLQFGGQVRQRYLYTDDAQQTEAHLEIREDGTVGGAADQSPESLLQLKALKPGVIQILGVKTSRFLCQRPDGALYGSLHFDPEACSFRELLLEDGYNVYQSEAHGLPLHLPGQKSPHRDPAPRGPARFLPLPGLPPALPEPPGILAPQPPDVGSSDPLSLVGGSQGRSPSYAS
notes: also called FGF21 mutant P171G
- Kd [1]: 42.5 nM
- Activity in β-Klotho-ERK cells (EC50) [2]: 1.15 nM
